Laboratory results reported in the supplement of paper PMC10126150.
± gives the standard deviation of the averaged measurements.

System: ATP
Assay: switch fluorescence ratio, 500 uM ATP over buffer (Cy3 cluster intensity, sum of 5 cycles each) (fold (ratio)); higher = stronger signal-on switching upon ATP binding; sequences stand for … in TCGTCGGCAGCGTCAGATGTGTATAAGAGACAGTTTTTTTTTTTTTTTTTTTTTTTTT…TC
Details: aptamer strand: ATP DNA aptamer (quencher-CACCTGGGGGAGTATTGCGGAGGAAGG + anchor), 100 nM annealed; ATP concentration: 500 uM
Summary of the method: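 Per cluster, summed Cy3 intensity from the target cycles was divided by that from the buffer cycles to give the fluorescence ratio, then averaged per switch-domain sequence. Clusters outside 100-1000 RFU were excluded. The Cy3-labelled switching-strand clusters, on a modified Illumina MiSeq flow-cell, were annealed to 100 nM quencher-labelled ATP aptamer and imaged in selection buffer, then after 15 min with 500 uM ATP at 22 °C, for five cycles with NaOH stripping and re-annealing between them.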
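Note: ATP exposure 15 min at 22 °C before imaging.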

Sequence | switch fluorescence ratio
TAAGGCGTTA | 0.985 ± 0.031
TAAGGCTCCC | 1.063 ± 0.0044
TAAGGGAATT | 1 ± 0.036
TAAGGGGATG | 0.99 ± 0.011
TAAGGGGCAA | 1.01 ± 0.018
TAAGGGGCGG | 0.989 ± 0.04
TAAGGGGGGT | 1.02 ± 0.034
TAAGGGGGTG | 1.01 ± 0.023
TAAGGGTGTA | 0.9934 ± 0.004
TAAGGGTTAC | 0.996 ± 0.03
TAAGGTAGGT | 0.993 ± 0.016
TAAGGTTGAC | 0.9953 ± 0.0035
TAAGGTTGTA | 0.9705 ± 0.0047
TAAGTAAAAT | 0.9968 ± 0.0089
TAAGTACGTG | 1.18 ± 0.035
TAAGTAGATT | 0.995 ± 0.018
TAAGTATCGC | 1.03 ± 0.036
TAAGTATTCG | 0.9972 ± 0.0086
TAAGTATTGT | 1.012 ± 0.0084
TAAGTCCACC | 1.012 ± 0.01
TAAGTCCCCA | 1.01 ± 0.052
TAAGTCCTT | 1.01 ± 0.048
TAAGTGACGG | 1.04 ± 0.036
TAAGTGGGGA | 0.959 ± 0.032
TAAGTGGGTA | 0.991 ± 0.011
TAAGTGGGTG | 1.01 ± 0.027

Sequence | switch fluorescence ratio
TAAGTGGTGA | 1.04 ± 0.056
TAAGTTGAGT | 1.01 ± 0.0093
TAAGTTGTGT | 0.972 ± 0.036
TAAGTTGTTG | 0.993 ± 0.042
TAAGTTGTTT | 0.996 ± 0.013
TAATAAAAAA | 0.9772 ± 0.0069
TAATAAAGGT | 0.995 ± 0.025
TAATAAATCA | 1 ± 0.036
TAATACTTCG | 1.03 ± 0.012
TAATAGAAGT | 0.979 ± 0.052
TAATAGGGGG | 1.02 ± 0.035
TAATAGGTTC | 0.972 ± 0.024
TAATATGGGT | 0.988 ± 0.023
TAATATGTTC | 1 ± 0.037
TAATATTTCG | 1.05 ± 0.04
TAATCAGGAA | 1.015 ± 0.0046
TAATCCATTT | 1.02 ± 0.036
TAATCCTCGT | 1.005 ± 0.0058
TAATCCTTTG | 1.01 ± 0.048
TAATCGCGGC | 1.31 ± 0.35
TAATCGGGAA | 1 ± 0.017
TAATCTTTGG | 0.961 ± 0.035
TAATGACTGT | 1.02 ± 0.045
TAATGAGCTT | 0.995 ± 0.013
TAATGATGAG | 0.987 ± 0.028
TAATGATTGA | 0.985 ± 0.0078

Sequence | switch fluorescence ratio
TAATGATTGC | 1.056 ± 0.0026
TAATGCCAGG | 1.088 ± 0.0038
TAATGCGTGG | 0.999 ± 0.032
TAATGGGTAA | 1.01 ± 0.065
TAATGGGTCC | 0.99 ± 0.019
TAATGGTCCG | 1.03 ± 0.03
TAATGGTTCG | 0.9962 ± 0.0025
TAATGGTTTG | 1.08 ± 0.12
TAATGTATTT | 1.01 ± 0.02
TAATGTGGCC | 1.01 ± 0.039
TAATGTGGGG | 0.9715 ± 0.0056
TAATGTGTTG | 0.994 ± 0.014
TAATGTTGGT | 1.025 ± 0.0014
TAATGTTTAG | 0.99019 ± 0.00022
TAATTAAATT | 0.9767 ± 0.0046
TAATTAGTTA | 0.992 ± 0.025
TAATTCGTCG | 0.997 ± 0.018
TAATTGAAGA | 0.971 ± 0.012
TAATTGACCG | 1.091 ± 0.0088
TAATTGAGCA | 0.99 ± 0.019
TAATTGCCTT | 1.02 ± 0.017
TAATTGGAGG | 0.9805 ± 0.0051
TAATTGGGGC | 1.02 ± 0.012
TAATTGTAAT | 1.04 ± 0.014
TAATTGTAGG | 0.98 ± 0.032
TAATTGTTTT | 1 ± 0.024

Sequence | switch fluorescence ratio
TAATTTACAG | 1 ± 0.03
TAATTTACTA | 1.04 ± 0.03
TAATTTAGAA | 0.975 ± 0.021
TAATTTCGGG | 0.986 ± 0.013
TAATTTCTGT | 1.01 ± 0.024
TAATTTGAAT | 1.028 ± 0.0063
TAATTTGGAA | 1.009 ± 0.0095
TAATTTTGAG | 0.9957 ± 0.0029
TAATTTTTG | 0.9976 ± 0.0011
TACAAACGGT | 1.17 ± 0.25
TACAAGATGT | 1.01 ± 0.029
TACAAGCTAA | 0.978 ± 0.032
TACAAGTAT | 0.997 ± 0.028
TACAAGTCGA | 1.016 ± 0.0042
TACAATCGCC | 1.06 ± 0.029
TACACGGGTT | 1.01 ± 0.035
TACAGAGATT | 0.9778 ± 0.0084
TACAGATTGG | 0.979 ± 0.025
TACAGGACTC | 1.09 ± 0.012
TACAGGCTCG | 1.007 ± 0.01
TACAGGGGGC | 1.12 ± 0.12
TACAGGGGGT | 1.02 ± 0.062
TACAGTTGCG | 1.02 ± 0.045
TACATATCTT | 1.01 ± 0.025
TACATCCGAG | 1.08 ± 0.029
TACATGGGTT | 1.01 ± 0.0092

Sequence | switch fluorescence ratio
TACATGTTAG | 1.01 ± 0.024
TACCAATGGA | 1.02 ± 0.04
TACCAATTAA | 1.01 ± 0.026
TACCACGGGG | 1.04 ± 0.019
TACCACTGCG | 1.04 ± 0.029
TACCAGGGGT | 0.9909 ± 0.0039
TACCATTTTG | 1 ± 0.028
TACCCGGGGT | 0.9827 ± 0.0097
TACCGGGGAG | 1.021 ± 0.0045
TACCGTGGGG | 1.05 ± 0.038
TACCTAGTTA | 1.03 ± 0.029
TACCTATGTT | 0.979 ± 0.011
TACCTCACTA | 1.42 ± 0.17
TACCTGGGGG | 1.02 ± 0.03
TACCTGGTTA | 0.999 ± 0.049
TACCTTCGTT | 1.04 ± 0.073
TACGAAGGGT | 0.987 ± 0.009
TACGAATCT | 1.03 ± 0.056
TACGAATGAG | 0.9854 ± 0.0057
TACGAATGGG | 1.01 ± 0.037
TACGAGAGCC | 1.04 ± 0.037
TACGAGCGAA | 1.34 ± 0.014
TACGAGCTGA | 1.027 ± 0.0097
TACGAGGGGG | 1 ± 0.021
TACGAGGTGT | 1.06 ± 0.027
TACGAGGTTT | 0.978 ± 0.03

Sequence | switch fluorescence ratio
TACGATACAC | 1.44 ± 0.075
TACGATAGGG | 1.21 ± 0.16
TACGATATTT | 1.099 ± 0.0068
TACGATGTGT | 1.03 ± 0.039
TACGCCTGCA | 1.059 ± 0.0084
TACGGAGGGA | 1.08 ± 0.029
TACGGCTGGT | 1.008 ± 0.0031
TACGGGAATG | 1.02 ± 0.036
TACGGGCTTA | 1.007 ± 0.0044
TACGGGGATG | 0.9963 ± 0.0056
TACGGGGCTG | 1.01 ± 0.11
TACGGGGGG | 1.02 ± 0.035
TACGGGGGTT | 0.994 ± 0.011
TACGGGGTCT | 1.04 ± 0.037
TACGGGTAAT | 1.04 ± 0.019
TACGGGTGTG | 1.016 ± 0.003
TACGGTAGCT | 1.12 ± 0.051
TACGGTGAGG | 1.02 ± 0.011
TACGTAACAG | 1.24 ± 0.064
TACGTAGGTG | 1.04 ± 0.031
TACGTTAGTA | 1.02 ± 0.033
TACGTTATGC | 1.27 ± 0.013
TACGTTCCTG | 1.03 ± 0.028
